Experimental findings from patent publication US20170137467A1 (CHROMOTEK, published 2017) are described below.

Positions count from the first letter of the chain named. Square brackets hold non-standard residues; d marks the D form. GABA = NCCCC(=O)O

Common to all, as to assay: library pulldown, LC-MS of supernatant; ratio vs GFP-Nb control (0=captured, 1=not captured)
One test concerns the target T1, BC2T A6P (human).
T1 construct: position 6 library (BC2TA6X), row P
T1 peptide: Ac-PDRKAPVSHWQQ-NH2
Summed up: (§1)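 Unbound peptide left in supernatant after 1 h pulldown in PBS/0.01% CHAPS measured by reversed-phase LC-MS (8–30% eluent B gradient, 20 min).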

The next test deals with T2, BC2T A6F (human).
T2 construct: position 6 library (BC2TA6X), row F
T2 peptide: Ac-PDRKAFVSHWQQ-NH2
An outline of the steps: as §1

Another test has as its target T3, BC2T A6T (human).
T3 construct: position 6 library (BC2TA6X), row T
T3 peptide: Ac-PDRKATVSHWQQ-NH2
An outline of the steps:
as §1

A further test addresses T4, BC2T A6Q (human).
T4 construct: position 6 library (BC2TA6X), row Q
T4 peptide: Ac-PDRKAQVSHWQQ-NH2
Summed up:
as §1

The target of the next test is T5, BC2T A6R (human).
T5 construct: position 6 library (BC2TA6X), row R
T5 peptide: Ac-PDRKARVSHWQQ-NH2
An outline of the steps:
as §1

A further test concerns the target T6, BC2T P1W (human).
T6 construct: position 1 library, row W
T6 peptide: Ac-WDRKAAVSHWQQ-NH2
An outline of the steps:
as §1

For the next test, the target named is T7, BC2T V7K (human).
T7 construct: position 7 library, row K
T7 peptide: Ac-PDRKAAKSHWQQ-NH2
Summed up: as §1

A further test addresses T8, BC2T V7R (human).
T8 construct: position 7 library, row R
T8 peptide: Ac-PDRKAARSHWQQ-NH2
Summed up: as §1

The next test concerns the target T9, BC2T P1N (human).
T9 construct: position 1 library, row N
T9 peptide: Ac-NDRKAAVSHWQQ-NH2
Summed up:
as §1

A further test concerns the target T10, BC2T D2N (human).
T10 construct: position 2 library, row N
T10 peptide: Ac-PNRKAAVSHWQQ-NH2
Summed up: as §1

Another test has as its target T11, BC2T R3P (human).
T11 construct: position 3 library (BC2TR3X), row P
T11 peptide: Ac-PDPKAAVSHWQQ-NH2
An outline of the steps: as §1

The target in another test is T12, BC2T R3W (human).
T12 construct: position 3 library (BC2TR3X), row W
T12 peptide: Ac-PDWKAAVSHWQQ-NH2
An outline of the steps: as §1

Another test deals with T13, BC2T R3C(Abu) (human, SMILES …).
T13 construct: position 3 library (BC2TR3X), row C(Abu) / C*
T13 peptide: Ac-PD[GABA]KAAVSHWQQ-NH2
Summed up: as §1

The target of the next test is T14, BC2T K4P (human).
T14 construct: position 4 library, row P
T14 peptide: Ac-PDRPAAVSHWQQ-NH2
Summed up: as §1

A further test has as its target T15, BC2T K4F (human).
T15 construct: position 4 library, row F
T15 peptide: Ac-PDRFAAVSHWQQ-NH2
Summed up:
as §1

The next test deals with T16, BC2T K4R (human).
T16 construct: position 4 library, row R
T16 peptide: Ac-PDRRAAVSHWQQ-NH2
An outline of the steps: as §1

For another test, the target named is T17, BC2T K4D (human).
T17 construct: position 4 library, row D
T17 peptide: Ac-PDRDAAVSHWQQ-NH2
Summed up: as §1

The target in another test is T18, BC2T A5P (human).
T18 construct: position 5 library, row P
T18 peptide: Ac-PDRKPAVSHWQQ-NH2
An outline of the steps: as §1

The next test has as its target T19, BC2T A5Q (human).
T19 construct: position 5 library, row Q
T19 peptide: Ac-PDRKQAVSHWQQ-NH2
An outline of the steps: as §1

Another test deals with T20, BC2T A5Y (human).
T20 construct: position 5 library, row Y
T20 peptide: Ac-PDRKYAVSHWQQ-NH2
Summed up:
as §1

The target in the next test is T21, BC2T A5C(Abu) (human, SMILES …).
T21 construct: position 5 library, row C(Abu) / C*
T21 peptide: Ac-PDRK[GABA]AVSHWQQ-NH2
Summed up:
as §1

Another test concerns the target T22, BC2T A5K (human).
T22 construct: position 5 library, row K
T22 peptide: Ac-PDRKKAVSHWQQ-NH2
An outline of the steps: as §1

B1: BC2 nanobody (BC2-Nb) (VHH)
VHH: QVQLVESGGGLVQPGGSLTLSCTASGFTLDHYDIGWFRQAPGKEREGVSCINNSDDDTYYADSVKGRFTIFMDNAKDTVYLQMNSLKPEDTAIYYCAEARGCKRGRYEYDFWGQGTQVTVSS
notes: immobilised on agarose/sepharose beads in this assay; also called BC2 nanotrap (immobilised form); not shown: C-terminal 6xHis-tag added by pHEN6 vector
As for B1, the ratio with BC2T A6P was 1.1; with BC2T A6F it was 1; with BC2T A6T, 0.2; in the test with BC2T A6Q it was 1; with BC2T A6R, 1.1; with BC2T P1W it was 0.1. In addition, the ratio in the test with BC2T V7K was determined as 0.3; with BC2T V7R it was 0.2; with BC2T P1N, 0.6; with BC2T D2N it was 0.2; with BC2T R3P it was 0.8; with BC2T R3W, 0.8. Also, the ratio was 0.5 in the test with BC2T R3C(Abu); 1 in the test with BC2T K4P; 0.3 with BC2T K4F; 0.1 with BC2T K4R; 1 with BC2T K4D; 0.1 in the test with BC2T A5P. Further, the ratio with BC2T A5Q worked out at 0.2; with BC2T A5Y, 0.1; in the test with BC2T A5C(Abu), 0.1; in the test with BC2T A5K it was 0.2.

B2: BC2-NbR106S (VHH)
VHH: B1 VHH with R106S
notes: immobilised on beads in this assay; not shown: C-terminal 6xHis-tag added by pHEN6 vector
B2: the ratio with BC2T A6P amounted to 1; with BC2T A6F it was 0.9; in the test with BC2T A6T, 0.4; with BC2T A6Q, 0.9; in the test with BC2T A6R, 0.7; in the test with BC2T P1W, 0.3. The ratio with BC2T V7K came out at 0.3; with BC2T V7R it was 0.2; with BC2T P1N it was 0.7; in the test with BC2T D2N, 0.3; with BC2T R3P, 1; with BC2T R3W, 1. The ratio with BC2T R3C(Abu) is 0.9; in the test with BC2T K4P it was 1; with BC2T K4F, 0.7; in the test with BC2T K4R, 0.1; in the test with BC2T K4D it was 1; with BC2T A5P, 0.4. Moreover, the ratio with BC2T A5Q came to 0.3; with BC2T A5Y, 0.2; with BC2T A5C(Abu), 0.3; in the test with BC2T A5K, 0.2.
